Measured values reported in US20240132485A1, “HETEROCYCLIC CULLIN RING UBIQUITIN LIGASE COMPOUNDS AND USES THEREOF” (CEMM - FORSCHUNGSZENTRUM FÜR MOLEKULARE MEDIZIN GMBH, priority 2020, published 2024).

Tests used:
[1] = biological target: Nanoluc_DDB1 (N-terminal Nanoluc luciferase, G4S linker, DDB1 (FL)) (UniProt Q16531); assay: NanoBRET in HEK293T cells, 10-point titration of compound Example 3-9; class A = EC50<=0.25 µM
[2] = biological target: Nanoluc_DDB1 (N-terminal Nanoluc luciferase, G4S linker, DDB1 (FL)) (UniProt Q16531); assay: NanoBRET in HEK293T cells, 10 µM compound Example 3-20; class C = 2-3 fold increase
[3] = biological target: Nanoluc_DDB1 (N-terminal Nanoluc luciferase, G4S linker, DDB1 (FL)) (UniProt Q16531); assay: NanoBRET in HEK293T cells, 10-point titration of compound Example 3-52; class A = EC50<=0.25 µM
[4] = biological target: Nanoluc_DDB1 (N-terminal Nanoluc luciferase, G4S linker, DDB1 (FL)) (UniProt Q16531); assay: NanoBRET in HEK293T cells, 10 µM compound Example 3-56; class C = 2-3 fold increase
[5] = biological target: Nanoluc_DDB1 (N-terminal Nanoluc luciferase, G4S linker, DDB1 (FL)) (UniProt Q16531); assay: NanoBRET in HEK293T cells, 10 µM compound Example 3-28; class B = 3-4 fold increase
[6] = biological target: Nanoluc_DDB1 (N-terminal Nanoluc luciferase, G4S linker, DDB1 (FL)) (UniProt Q16531); assay: NanoBRET in HEK293T cells, 10 µM compound Example 3-9; class A = greater than 4-fold increase
[7] = biological target: Nanoluc_DDB1 (N-terminal Nanoluc luciferase, G4S linker, DDB1 (FL)) (UniProt Q16531); assay: NanoBRET in HEK293T cells, 10-point titration of compound Example 3-62; class A = EC50<=0.25 µM
[8] = biological target: Nanoluc_DDB1 (N-terminal Nanoluc luciferase, G4S linker, DDB1 (FL)) (UniProt Q16531); assay: NanoBRET in HEK293T cells, 10 µM compound Example 3-40; class B = 3-4 fold increase
[9] = biological target: Nanoluc_DDB1 (N-terminal Nanoluc luciferase, G4S linker, DDB1 (FL)) (UniProt Q16531); assay: NanoBRET in HEK293T cells, 10 µM compound Example 3-47; class A = greater than 4-fold increase
[10] = biological target: Nanoluc_DDB1 (N-terminal Nanoluc luciferase, G4S linker, DDB1 (FL)) (UniProt Q16531); assay: NanoBRET in HEK293T cells, 10-point titration of compound Example 3-1; class A = EC50<=0.25 µM
[11] = biological target: Nanoluc_DDB1 (N-terminal Nanoluc luciferase, G4S linker, DDB1 (FL)) (UniProt Q16531); assay: NanoBRET in HEK293T cells, 10 µM compound Example 3-50; class A = greater than 4-fold increase
[12] = biological target: Nanoluc_DDB1 (N-terminal Nanoluc luciferase, G4S linker, DDB1 (FL)) (UniProt Q16531); assay: NanoBRET in HEK293T cells, 10-point titration of compound Example 3-50; class A = EC50<=0.25 µM
[13] = biological target: Nanoluc_DDB1 (N-terminal Nanoluc luciferase, G4S linker, DDB1 (FL)) (UniProt Q16531); assay: NanoBRET in HEK293T cells, 10 µM compound Example 3-39; class B = 3-4 fold increase
[14] = biological target: Nanoluc_DDB1 (N-terminal Nanoluc luciferase, G4S linker, DDB1 (FL)) (UniProt Q16531); assay: NanoBRET in HEK293T cells, 10 µM compound Example 3-64; class A = greater than 4-fold increase
[15] = biological target: Nanoluc_DDB1 (N-terminal Nanoluc luciferase, G4S linker, DDB1 (FL)) (UniProt Q16531); assay: NanoBRET in HEK293T cells, 10-point titration of compound Example 3-43; class A = EC50<=0.25 µM
[16] = biological target: Nanoluc_DDB1 (N-terminal Nanoluc luciferase, G4S linker, DDB1 (FL)) (UniProt Q16531); assay: NanoBRET in HEK293T cells, 10 µM compound Example 3-22; class B = 3-4 fold increase
[17] = biological target: Nanoluc_DDB1 (N-terminal Nanoluc luciferase, G4S linker, DDB1 (FL)) (UniProt Q16531); assay: NanoBRET in HEK293T cells, 10 µM compound Example 3-63; class B = 3-4 fold increase
[18] = biological target: Nanoluc_DDB1 (N-terminal Nanoluc luciferase, G4S linker, DDB1 (FL)) (UniProt Q16531); assay: NanoBRET in HEK293T cells, 10 µM compound Example 3-15; class D = 1-2 fold increase
[19] = biological target: Nanoluc_DDB1 (N-terminal Nanoluc luciferase, G4S linker, DDB1 (FL)) (UniProt Q16531); assay: NanoBRET in HEK293T cells, 10 µM compound Example 3-36; class C = 2-3 fold increase
[20] = biological target: Nanoluc_DDB1 (N-terminal Nanoluc luciferase, G4S linker, DDB1 (FL)) (UniProt Q16531); assay: NanoBRET in HEK293T cells, 10 µM compound Example 3-58; class C = 2-3 fold increase
[21] = biological target: Nanoluc_DDB1 (N-terminal Nanoluc luciferase, G4S linker, DDB1 (FL)) (UniProt Q16531); assay: NanoBRET in HEK293T cells, 10 µM compound Example 3-32; class B = 3-4 fold increase
[22] = biological target: Nanoluc_DDB1 (N-terminal Nanoluc luciferase, G4S linker, DDB1 (FL)) (UniProt Q16531); assay: NanoBRET in HEK293T cells, 10 µM compound Example 3-17; class A = greater than 4-fold increase
[23] = biological target: Nanoluc_DDB1 (N-terminal Nanoluc luciferase, G4S linker, DDB1 (FL)) (UniProt Q16531); assay: NanoBRET in HEK293T cells, 10 µM compound Example 3-43; class A = greater than 4-fold increase
[24] = biological target: Nanoluc_DDB1 (N-terminal Nanoluc luciferase, G4S linker, DDB1 (FL)) (UniProt Q16531); assay: NanoBRET in HEK293T cells, 10-point titration of compound Example 3-64; class E = >10 µM
[25] = biological target: Nanoluc_DDB1 (N-terminal Nanoluc luciferase, G4S linker, DDB1 (FL)) (UniProt Q16531); assay: NanoBRET in HEK293T cells, 10 µM compound Example 3-14; class A = greater than 4-fold increase

Sequence of Nanoluc_DDB1 (N-terminal Nanoluc luciferase, G4S linker, DDB1 (FL)) (Q16531 other isoform, or with tags, fused parts or gaps): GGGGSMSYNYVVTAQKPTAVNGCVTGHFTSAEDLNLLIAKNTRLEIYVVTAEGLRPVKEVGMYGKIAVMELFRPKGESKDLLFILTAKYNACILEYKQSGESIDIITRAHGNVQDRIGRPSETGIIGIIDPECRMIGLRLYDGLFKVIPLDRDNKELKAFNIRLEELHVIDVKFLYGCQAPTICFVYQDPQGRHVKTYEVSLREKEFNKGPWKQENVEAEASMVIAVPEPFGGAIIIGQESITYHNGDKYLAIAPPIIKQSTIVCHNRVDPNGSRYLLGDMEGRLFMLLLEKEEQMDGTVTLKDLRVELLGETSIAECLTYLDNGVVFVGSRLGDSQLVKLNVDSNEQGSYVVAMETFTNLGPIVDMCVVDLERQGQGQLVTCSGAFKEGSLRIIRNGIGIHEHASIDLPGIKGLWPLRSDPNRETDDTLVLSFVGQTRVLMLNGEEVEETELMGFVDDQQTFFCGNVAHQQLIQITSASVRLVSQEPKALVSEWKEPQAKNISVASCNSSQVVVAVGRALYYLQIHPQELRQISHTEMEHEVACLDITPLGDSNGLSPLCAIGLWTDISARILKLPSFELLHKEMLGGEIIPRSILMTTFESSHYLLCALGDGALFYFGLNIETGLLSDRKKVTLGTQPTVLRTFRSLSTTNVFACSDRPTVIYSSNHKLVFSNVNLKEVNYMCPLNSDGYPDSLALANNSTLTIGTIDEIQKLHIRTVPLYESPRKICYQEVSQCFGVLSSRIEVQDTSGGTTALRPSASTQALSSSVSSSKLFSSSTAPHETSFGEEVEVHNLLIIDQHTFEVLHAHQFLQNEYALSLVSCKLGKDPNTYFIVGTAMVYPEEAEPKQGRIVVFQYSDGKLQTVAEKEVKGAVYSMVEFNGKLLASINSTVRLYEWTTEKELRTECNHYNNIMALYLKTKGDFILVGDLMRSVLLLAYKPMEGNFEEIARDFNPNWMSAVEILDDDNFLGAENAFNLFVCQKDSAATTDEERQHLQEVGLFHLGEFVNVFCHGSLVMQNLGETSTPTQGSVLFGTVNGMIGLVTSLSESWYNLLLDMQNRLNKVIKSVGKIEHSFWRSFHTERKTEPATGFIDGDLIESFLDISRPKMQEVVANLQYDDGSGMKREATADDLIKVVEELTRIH

HaloTag_CDK12 (N-terminal HaloTag, G4S linker, CDK12 (713-1052)) (from UniProt Q9NYV4 713-1052) (enzyme)
EC50 [1]: < 250 nM
NanoBRET fold increase [2]: 2 to 3 fold
EC50 [3]: < 250 nM
NanoBRET fold increase [4]: 2 to 3 fold
NanoBRET fold increase [5]: 3 to 4 fold
NanoBRET fold increase [6]: > 4 fold
EC50 [7]: < 250 nM
NanoBRET fold increase [8]: 3 to 4 fold
NanoBRET fold increase [9]: > 4 fold
EC50 [10]: < 250 nM
NanoBRET fold increase [11]: > 4 fold
EC50 [12]: < 250 nM
NanoBRET fold increase [13]: 3 to 4 fold
NanoBRET fold increase [14]: > 4 fold
EC50 [15]: < 250 nM
NanoBRET fold increase [16]: 3 to 4 fold
NanoBRET fold increase [17]: 3 to 4 fold
NanoBRET fold increase [18]: 1 to 2 fold
NanoBRET fold increase [19]: 2 to 3 fold
NanoBRET fold increase [20]: 2 to 3 fold
NanoBRET fold increase [21]: 3 to 4 fold
NanoBRET fold increase [22]: > 4 fold
NanoBRET fold increase [23]: > 4 fold
EC50 [24]: > 10000 nM
NanoBRET fold increase [25]: > 4 fold
